Measurements: patent US20240002477A1 (UNIVERSITY OF CHICAGO, published 2024)
Substitutions are numbered along the chain they refer to.

B1: S144-1299 (antibody, V domains shown)
VH: QVQLQESGPGLVKPSETLSLTCTVSGGSISSYYWSWIRQPPGKGLEWIGYINYRGITNYNPSLKSRVTISVDMSKNQFSLKLSSVTAADTAVYSCARLAVASRGTVDYWGQGTLVTVSS
VL: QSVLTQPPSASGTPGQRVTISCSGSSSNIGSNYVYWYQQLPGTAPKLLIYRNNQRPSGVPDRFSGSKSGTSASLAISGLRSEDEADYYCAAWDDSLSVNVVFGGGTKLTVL
B2: S24-278 (antibody, V domains shown)
VH: QVQLVQSGAEVKKPGASVKVSCKASGYTFTGYYMHWVRQAPGQGLEWMGWINPNSGDTNYAQKFQGWVTMTRDTSLSTAYMELSRLKSDDTAVYYCARVGVGEYSGRHYYYYGMDVWGQGTTVTVSS
VL: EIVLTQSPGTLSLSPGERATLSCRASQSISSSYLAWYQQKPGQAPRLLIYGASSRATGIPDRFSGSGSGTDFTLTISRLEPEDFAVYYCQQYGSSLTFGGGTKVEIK
B3: S24-1378 (antibody, V domains shown)
VH: EVQLVESGGGLVQPGGSLRLSCAASGFTVSSNYMSWVRQAPGKGLEWVSVIYSGGSTYYADSVKGRFTISRHNSKNTLYLQMNSLRAEDTAVYYCAREGYCTNGVCYRHAFDIWGQGTMVTVSS
VL: QTVVTQEPSFSVSPGGTVTLTCGLSSGSVSTSYYPSWYQQTPGQAPRTLIYSTNTRSSGVPDRFSGSILGNKAALTITGAQADDESDYYCVLYMGSGISVFGGGTKLTVL
B4: S564-138 (antibody, V domains shown)
VH: QVLLVQSGAEVKKPGASVKVSCKASGYTFTGYYLHWVRQAPGQGLEWMGWINPISGGTNYAQNFQDRVTMTRDTSIITAYMELSRLRSDDTAVYYCARLAYYYDSSAYRGAFDIWGQGTMVTVSS
VL: QSALTQPASVSGSPGQSITISCTGTSSDVGGYNYVSWYQQHPGKAPKLMIYEVSNRPSGVSDRFSGSKSGNTASLTISGLQAEDEADYYCSSYTSSSTYVFGTGTKVTVL
B5: S564-287 (antibody, V domains shown)
VH: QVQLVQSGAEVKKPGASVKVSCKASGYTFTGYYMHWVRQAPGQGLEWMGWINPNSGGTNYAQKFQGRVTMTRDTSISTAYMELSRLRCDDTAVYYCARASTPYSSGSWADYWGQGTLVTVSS
VL: B4 VL with E52D, D62N, T94A, Y99W, T103G, V107L
B6: S564-152 (antibody, V domains shown)
VH: QVQLVESGGGVVQPGRSLRLSCAASGFTFSYYGMHWVRQAPGKGLEWVAVIWYDGSNKHYADSVKGRFTISRDNSKNTLYLQMNSLRAEDTAVYYCAKNAAPYCSGGSCYGTYFDYWGQGTLVTVSS
VL: DIQMTQSPSSLSASVGDRVTITCQASQDINNYLNWYQQKPGKAPKLLIYDASNLETGVPSRFSGSGSGTDFTFTISSLQPEDIATYYCQQYDNVPPHTFGQGTKLEIK

Tests used:
[1] = target: T1, SARS-CoV-2 open reading frame 8 protein (SARS-CoV-2, UniProt P0DTC8 16-121)
T1 construct: domain: Ig-like domain; also called ORF8

[2] = target: T2, SARS-CoV-2 open reading frame 8 (ORF8) protein (SARS-CoV-2, UniProt P0DTC8 16-121)
T2 construct: domain: Ig-like domains; also called ORFS [sic]

[3] = target: SARS-CoV-2 spike receptor binding domain (SARS-CoV-2, UniProt P0DTC2 319-541)

T1 sequence (P0DTC8 16-121, tags left off): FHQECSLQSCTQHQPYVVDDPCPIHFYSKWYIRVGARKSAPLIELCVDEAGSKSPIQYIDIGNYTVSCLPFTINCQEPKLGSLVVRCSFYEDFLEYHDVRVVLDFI
T2 sequence (P0DTC8 16-121, tags left off): as above

| Binder | binding result [1] | binding result [2] | binding result [3] |
| --- | --- | --- | --- |
| B1 | binds | – | – |
| B2 | – | binds | – |
| B3 | – | binds | – |
| B4 | – | – | binds |
| B5 | binds | – | – |
| B6 | – | – | binds |
